Assay results reported in the supplement of paper PMC7877785.
± gives the uncertainty stated by the source.

Assay: self-splicing fitness, log relative to wild type (ln ratio); higher = more splicing; Tetrahymena group I intron in knt gene, E. coli kanamycin selection, DiMSum; sequences stand for … in CUCUCU…GGAGGGAAAAGUUAUCAGGCAUGCACCUGGUAGCUAGUCUUUAAACCAAUAGAUUGCAUCGGUUUAAAAGGCAAGACCGUCAAAUUGCGGGAAAGGGGUCAACAGCCGUUCAGUACCAAGUCUCAGGGGAAACUUUGAGAUGGCCUUGCAAAGGGUAUGGUAAUAAGCUGACGGACAUGGUCCUAACCACGCAGCCAAGUCCUAAGUCAACAGAUCUUCUGUUGAUAUGGAUGCAGUUCACAGACUAAAUGUCGGUCGGGGAAGAUGUAUUCUUCUCAUAAGAUAUAGUCGGACCUCUCCUUAAUGGGAGCUAGCGGAUGAAGUGAUGCAACACUGGAGCCGCUGGGAACUAAUUUGUAUGCGAAAGUAUAUUGAUUAGUUUUGGAGUACUCGUGGUCG
In short: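 Library with all eight P1ex-region intron nucleotides randomised, intron inside the knt kanamycin-resistance gene on pET-22b(+), in E. coli BL21(DE3). Cells grew overnight at 37°C or 30°C on LB agar with or without 25 μg/mL kanamycin (plus 100 μg/mL carbenicillin, 50 μM IPTG, 0.2% rhamnose), in six replicate transformations. Pooled colonies were amplicon-sequenced on Illumina HiSeq 2500. DiMSum fitness is the error-weighted combination of wild-type-normalised replicate fold changes, kanamycin versus none.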

Row | Sequence | self-splicing fitness (ln) (30 °C) | self-splicing fitness (ln) (37 °C)
1 | UAGCAGCAAUAUUACGUGCU | -1.12 ± 0.12 | -1.9 ± 0.16
2 | UAGCAGCAAUAUUACGUUCU | -1.45 ± 0.1 | -0.606 ± 0.12
3 | UAGCAGCAAUAUUACGUUGG | -2.36 ± 0.089 | -2.22 ± 0.12
4 | UAGGAGCAAUAUUACGAAUG | -1.64 ± 0.4 | -0.141 ± 0.49
5 | UAGGAGCAAUAUUACGACAG | -2.19 ± 0.33 | –
6 | UAGGAGCAAUAUUACGACCG | 0.0998 ± 0.18 | -0.0128 ± 0.23
7 | UAGGAGCAAUAUUACGAGCA | -2.38 ± 0.17 | -1.58 ± 0.15
8 | UAGGAGCAAUAUUACGAUCA | -1.02 ± 0.2 | -0.542 ± 0.28
9 | UAGGAGCAAUAUUACGCAAG | – | -0.879 ± 0.22
10 | UAGGAGCAAUAUUACGCAGU | – | -1.96 ± 0.28
11 | UAGGAGCAAUAUUACGCGCG | -0.62 ± 0.11 | -1.29 ± 0.14
12 | UAGGAGCAAUAUUACGGAAC | – | -0.574 ± 0.4
13 | UAGGAGCAAUAUUACGGACA | -3.74 ± 0.4 | -0.442 ± 0.18
14 | UAGGAGCAAUAUUACGGCUC | -2.64 ± 0.24 | –
15 | UAGGAGCAAUAUUACGGGCG | -2.73 ± 0.19 | -2.58 ± 0.23
16 | UAGGAGCAAUAUUACGGGCU | -3.12 ± 0.48 | -1.64 ± 0.4
17 | UAGGAGCAAUAUUACGGUAG | -3.52 ± 0.17 | -1.56 ± 0.13
18 | UAGGAGCAAUAUUACGUACC | -2.66 ± 0.32 | -2.69 ± 0.43
19 | UAGGAGCAAUAUUACGUAUC | -1.71 ± 0.2 | –
20 | UAGGAGCAAUAUUACGUCGU | -1.72 ± 0.28 | -1.86 ± 0.35
21 | UAGGAGCAAUAUUACGUGCA | -1.88 ± 0.17 | -1.41 ± 0.19
22 | UAGGAGCAAUAUUACGUUUG | -3.19 ± 0.2 | -1.25 ± 0.22
23 | UAGUAGCAAUAUUACGACAU | -2.049 ± 0.018 | -0.934 ± 0.034
24 | UAGUAGCAAUAUUACGAGCU | – | -0.383 ± 0.21
25 | UAGUAGCAAUAUUACGAGGA | – | -1.81 ± 0.46

Row | Sequence | self-splicing fitness (ln) (30 °C) | self-splicing fitness (ln) (37 °C)
26 | UAGUAGCAAUAUUACGAGUU | -3.96 ± 0.28 | -2.75 ± 0.23
27 | UAGUAGCAAUAUUACGCAUG | -1.58 ± 0.092 | -0.443 ± 0.095
28 | UAGUAGCAAUAUUACGCCAA | -3.28 ± 0.29 | -2.02 ± 0.24
29 | UAGUAGCAAUAUUACGCGAA | – | -2.45 ± 0.41
30 | UAGUAGCAAUAUUACGCUAG | -1.09 ± 0.23 | 0.812 ± 0.24
31 | UAGUAGCAAUAUUACGGAAG | – | -1.83 ± 0.23
32 | UAGUAGCAAUAUUACGGAUC | -2.87 ± 0.11 | -0.854 ± 0.079
33 | UAGUAGCAAUAUUACGGGAC | -4.2 ± 0.42 | -2.27 ± 0.43
34 | UAGUAGCAAUAUUACGGGAU | -3.3 ± 0.23 | -1.97 ± 0.18
35 | UAGUAGCAAUAUUACGGGGC | -3.84 ± 0.39 | -2.68 ± 0.27
36 | UAGUAGCAAUAUUACGGGGG | -4.33 ± 0.46 | -2.8 ± 0.36
37 | UAGUAGCAAUAUUACGGUAU | -2.55 ± 0.24 | -2.39 ± 0.35
38 | UAGUAGCAAUAUUACGGUCU | -1.79 ± 0.17 | -0.706 ± 0.13
39 | UAGUAGCAAUAUUACGGUUA | -0.28 ± 0.077 | 0.03 ± 0.091
40 | UAGUAGCAAUAUUACGUAUU | -4.59 ± 0.36 | -1.96 ± 0.2
41 | UAGUAGCAAUAUUACGUCAG | – | -0.99 ± 0.22
42 | UAGUAGCAAUAUUACGUCGA | -1.6 ± 0.17 | -1.24 ± 0.16
43 | UAGUAGCAAUAUUACGUGAA | -3.8 ± 0.35 | -1.07 ± 0.18
44 | UAGUAGCAAUAUUACGUGAG | -1.3 ± 0.074 | -1.87 ± 0.12
45 | UAGUAGCAAUAUUACGUUCU | -1.88 ± 0.12 | -0.844 ± 0.098
46 | UAGUAGCAAUAUUACGUUUA | -1.48 ± 0.16 | -1.22 ± 0.14
47 | UAUAAGCAAUAUUACGACAA | 0.0108 ± 0.14 | -0.202 ± 0.17
48 | UAUAAGCAAUAUUACGACGA | -0.51 ± 0.14 | -1.36 ± 0.15
49 | UAUAAGCAAUAUUACGACGU | -1.12 ± 0.11 | -0.116 ± 0.11
50 | UAUAAGCAAUAUUACGAUAU | -2.9 ± 0.21 | -1.96 ± 0.2

Row | Sequence | self-splicing fitness (ln) (30 °C) | self-splicing fitness (ln) (37 °C)
51 | UAUAAGCAAUAUUACGAUCG | -0.0932 ± 0.12 | -0.23 ± 0.13
52 | UAUAAGCAAUAUUACGCAGC | -2.5 ± 0.23 | -2.43 ± 0.3
53 | UAUAAGCAAUAUUACGCGCA | -0.204 ± 0.11 | 0.304 ± 0.14
54 | UAUAAGCAAUAUUACGCGUA | -1.84 ± 0.2 | -0.627 ± 0.17
55 | UAUAAGCAAUAUUACGCUCA | -0.3 ± 0.14 | 0.688 ± 0.21
56 | UAUAAGCAAUAUUACGCUUU | -4.08 ± 0.35 | -2.77 ± 0.3
57 | UAUAAGCAAUAUUACGGAUU | -3.03 ± 0.21 | -1.51 ± 0.19
58 | UAUAAGCAAUAUUACGGGGG | -3.88 ± 0.29 | -3.09 ± 0.24
59 | UAUAAGCAAUAUUACGGUAA | -2.02 ± 0.2 | -0.715 ± 0.14
60 | UAUAAGCAAUAUUACGGUCU | -1.22 ± 0.13 | -1.05 ± 0.17
61 | UAUAAGCAAUAUUACGUAAU | -3.56 ± 0.37 | -0.822 ± 0.19
62 | UAUAAGCAAUAUUACGUACU | -1.69 ± 0.16 | -0.993 ± 0.11
63 | UAUAAGCAAUAUUACGUAGA | -1.89 ± 0.11 | -0.959 ± 0.13
64 | UAUAAGCAAUAUUACGUCAG | -1.22 ± 0.11 | -0.547 ± 0.17
65 | UAUAAGCAAUAUUACGUCAU | -3.37 ± 0.22 | -0.173 ± 0.15
66 | UAUAAGCAAUAUUACGUGAC | -2.15 ± 0.19 | -0.695 ± 0.3
67 | UAUAAGCAAUAUUACGUGAU | -1.89 ± 0.13 | -1.45 ± 0.17
68 | UAUAAGCAAUAUUACGUGGU | -3.76 ± 0.29 | -2.53 ± 0.21
69 | UAUAAGCAAUAUUACGUUGG | -2.78 ± 0.13 | -2.23 ± 0.17
70 | UAUCAGCAAUAUUACGACCU | -0.529 ± 0.071 | 0.112 ± 0.1
71 | UAUCAGCAAUAUUACGACGC | -2.09 ± 0.13 | -0.508 ± 0.13
72 | UAUCAGCAAUAUUACGCAGG | -1.01 ± 0.055 | 0.028 ± 0.07
73 | UAUCAGCAAUAUUACGCCAG | -0.548 ± 0.15 | -0.584 ± 0.18
74 | UAUCAGCAAUAUUACGCCCC | 1 ± 0.34 | -1.06 ± 0.41
75 | UAUCAGCAAUAUUACGCCUC | – | -1.96 ± 0.47

Row | Sequence | self-splicing fitness (ln) (30 °C) | self-splicing fitness (ln) (37 °C)
76 | UAUCAGCAAUAUUACGCGGA | -0.964 ± 0.081 | -0.0724 ± 0.076
77 | UAUCAGCAAUAUUACGCUCG | -0.0189 ± 0.079 | 0.35 ± 0.12
78 | UAUCAGCAAUAUUACGCUUG | -0.489 ± 0.098 | 0.0735 ± 0.12
79 | UAUCAGCAAUAUUACGGAGG | -1.18 ± 0.13 | -0.979 ± 0.14
80 | UAUCAGCAAUAUUACGGAGU | -2.09 ± 0.068 | -0.974 ± 0.09
81 | UAUCAGCAAUAUUACGGAUU | -0.839 ± 0.079 | 0.0545 ± 0.1
82 | UAUCAGCAAUAUUACGGUUA | -0.0611 ± 0.064 | 0.0198 ± 0.07
83 | UAUCAGCAAUAUUACGGUUC | -2.42 ± 0.14 | 0.223 ± 0.12
84 | UAUCAGCAAUAUUACGUGAU | -3.01 ± 0.12 | -1.51 ± 0.11
85 | UAUGAGCAAUAUUACGAACC | -2.34 ± 0.4 | –
86 | UAUGAGCAAUAUUACGAAGU | -4.08 ± 0.42 | -1.93 ± 0.23
87 | UAUGAGCAAUAUUACGAAUG | -2.49 ± 0.17 | -1.28 ± 0.18
88 | UAUGAGCAAUAUUACGACGU | -3.11 ± 0.21 | -2.62 ± 0.3
89 | UAUGAGCAAUAUUACGAUUU | -3.29 ± 0.26 | -1.76 ± 0.22
90 | UAUGAGCAAUAUUACGCAGG | -2.59 ± 0.26 | -2.34 ± 0.22
91 | UAUGAGCAAUAUUACGCGCG | -2.51 ± 0.31 | -1.01 ± 0.27
92 | UAUGAGCAAUAUUACGCGGC | -4.02 ± 0.29 | -1.8 ± 0.25
93 | UAUGAGCAAUAUUACGCGGG | -2.75 ± 0.3 | -1.6 ± 0.23
94 | UAUGAGCAAUAUUACGCUAA | -1.99 ± 0.23 | -2.39 ± 0.25
95 | UAUGAGCAAUAUUACGCUCU | -3.16 ± 0.41 | –
96 | UAUGAGCAAUAUUACGCUGC | -4.14 ± 0.31 | -2.78 ± 0.3
97 | UAUGAGCAAUAUUACGGACA | -2.64 ± 0.35 | -2.28 ± 0.29
98 | UAUGAGCAAUAUUACGGAGA | -2.48 ± 0.28 | -2.34 ± 0.27
99 | UAUGAGCAAUAUUACGGAUU | -2.96 ± 0.28 | -2.28 ± 0.31
